# Assay results as given in IntAct's records for PubMed 25201882.
# Columns and labels:
# sc16a_human SEC16A = sc16a_human SEC16A (UniProt O15027)
# sc16a_mouse Sec16a = sc16a_mouse Sec16a (UniProt E9QAT4)
# Sequence of UniProt E9QAT4 (E9QAT4 whole entry): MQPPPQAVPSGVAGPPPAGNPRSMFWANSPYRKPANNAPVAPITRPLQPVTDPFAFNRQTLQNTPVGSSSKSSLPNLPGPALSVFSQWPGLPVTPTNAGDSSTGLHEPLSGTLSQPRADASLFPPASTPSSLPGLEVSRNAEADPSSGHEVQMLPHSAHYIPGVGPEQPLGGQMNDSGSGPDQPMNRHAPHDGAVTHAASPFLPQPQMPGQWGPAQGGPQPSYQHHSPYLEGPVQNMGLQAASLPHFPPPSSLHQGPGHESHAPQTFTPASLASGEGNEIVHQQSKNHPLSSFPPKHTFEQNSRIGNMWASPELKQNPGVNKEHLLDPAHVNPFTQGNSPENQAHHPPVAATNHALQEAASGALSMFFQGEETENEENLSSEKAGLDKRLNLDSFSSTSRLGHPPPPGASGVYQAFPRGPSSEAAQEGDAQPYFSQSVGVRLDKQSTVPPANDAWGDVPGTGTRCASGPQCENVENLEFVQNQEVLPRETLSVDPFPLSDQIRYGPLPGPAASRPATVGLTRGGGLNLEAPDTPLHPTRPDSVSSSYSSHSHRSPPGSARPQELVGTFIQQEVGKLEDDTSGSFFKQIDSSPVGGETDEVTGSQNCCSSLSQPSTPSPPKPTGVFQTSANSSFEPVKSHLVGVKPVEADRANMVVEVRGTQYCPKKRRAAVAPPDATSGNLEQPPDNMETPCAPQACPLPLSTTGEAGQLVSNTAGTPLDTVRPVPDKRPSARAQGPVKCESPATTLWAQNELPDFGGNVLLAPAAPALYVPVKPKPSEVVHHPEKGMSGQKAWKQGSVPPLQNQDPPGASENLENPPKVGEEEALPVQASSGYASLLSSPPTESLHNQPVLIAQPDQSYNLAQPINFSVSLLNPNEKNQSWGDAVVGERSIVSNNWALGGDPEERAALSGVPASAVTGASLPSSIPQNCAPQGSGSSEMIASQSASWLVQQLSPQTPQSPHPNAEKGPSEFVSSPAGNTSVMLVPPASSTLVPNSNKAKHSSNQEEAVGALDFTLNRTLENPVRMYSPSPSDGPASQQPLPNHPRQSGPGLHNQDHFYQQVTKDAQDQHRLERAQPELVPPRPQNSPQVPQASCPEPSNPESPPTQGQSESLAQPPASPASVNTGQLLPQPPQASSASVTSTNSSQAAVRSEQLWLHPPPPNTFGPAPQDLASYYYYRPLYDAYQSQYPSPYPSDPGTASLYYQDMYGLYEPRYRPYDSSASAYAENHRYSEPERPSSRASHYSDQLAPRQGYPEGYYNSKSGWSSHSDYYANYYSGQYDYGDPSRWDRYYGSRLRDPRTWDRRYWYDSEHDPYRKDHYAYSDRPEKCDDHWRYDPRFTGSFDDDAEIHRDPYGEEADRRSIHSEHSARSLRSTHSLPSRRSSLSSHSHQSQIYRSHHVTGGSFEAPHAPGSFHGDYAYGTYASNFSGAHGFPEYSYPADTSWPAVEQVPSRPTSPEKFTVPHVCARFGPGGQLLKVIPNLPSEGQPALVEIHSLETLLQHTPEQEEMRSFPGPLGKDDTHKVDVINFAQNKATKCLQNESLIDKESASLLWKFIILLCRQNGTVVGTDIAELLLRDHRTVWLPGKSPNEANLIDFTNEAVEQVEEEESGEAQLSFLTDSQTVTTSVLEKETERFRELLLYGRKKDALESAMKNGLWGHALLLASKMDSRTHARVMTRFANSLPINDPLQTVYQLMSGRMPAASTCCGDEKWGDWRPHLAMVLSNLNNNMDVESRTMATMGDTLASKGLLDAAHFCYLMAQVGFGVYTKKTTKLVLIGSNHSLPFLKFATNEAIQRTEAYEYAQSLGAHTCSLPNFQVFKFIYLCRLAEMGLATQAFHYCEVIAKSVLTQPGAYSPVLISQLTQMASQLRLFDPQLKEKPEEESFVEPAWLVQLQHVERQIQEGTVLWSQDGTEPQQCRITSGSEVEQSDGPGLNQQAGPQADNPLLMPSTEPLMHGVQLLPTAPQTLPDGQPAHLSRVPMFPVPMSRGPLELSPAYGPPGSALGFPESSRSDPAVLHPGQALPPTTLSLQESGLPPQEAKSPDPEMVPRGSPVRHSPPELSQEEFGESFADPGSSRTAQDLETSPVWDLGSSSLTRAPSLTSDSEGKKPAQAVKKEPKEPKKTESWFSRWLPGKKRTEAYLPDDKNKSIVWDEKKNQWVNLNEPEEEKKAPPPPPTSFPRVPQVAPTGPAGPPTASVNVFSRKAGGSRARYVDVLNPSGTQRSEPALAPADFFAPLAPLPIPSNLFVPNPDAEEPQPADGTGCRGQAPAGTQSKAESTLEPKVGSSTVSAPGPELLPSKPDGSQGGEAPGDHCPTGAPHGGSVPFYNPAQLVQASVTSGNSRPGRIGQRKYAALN
# Sequence of UniProt O15027 (O15027 whole entry): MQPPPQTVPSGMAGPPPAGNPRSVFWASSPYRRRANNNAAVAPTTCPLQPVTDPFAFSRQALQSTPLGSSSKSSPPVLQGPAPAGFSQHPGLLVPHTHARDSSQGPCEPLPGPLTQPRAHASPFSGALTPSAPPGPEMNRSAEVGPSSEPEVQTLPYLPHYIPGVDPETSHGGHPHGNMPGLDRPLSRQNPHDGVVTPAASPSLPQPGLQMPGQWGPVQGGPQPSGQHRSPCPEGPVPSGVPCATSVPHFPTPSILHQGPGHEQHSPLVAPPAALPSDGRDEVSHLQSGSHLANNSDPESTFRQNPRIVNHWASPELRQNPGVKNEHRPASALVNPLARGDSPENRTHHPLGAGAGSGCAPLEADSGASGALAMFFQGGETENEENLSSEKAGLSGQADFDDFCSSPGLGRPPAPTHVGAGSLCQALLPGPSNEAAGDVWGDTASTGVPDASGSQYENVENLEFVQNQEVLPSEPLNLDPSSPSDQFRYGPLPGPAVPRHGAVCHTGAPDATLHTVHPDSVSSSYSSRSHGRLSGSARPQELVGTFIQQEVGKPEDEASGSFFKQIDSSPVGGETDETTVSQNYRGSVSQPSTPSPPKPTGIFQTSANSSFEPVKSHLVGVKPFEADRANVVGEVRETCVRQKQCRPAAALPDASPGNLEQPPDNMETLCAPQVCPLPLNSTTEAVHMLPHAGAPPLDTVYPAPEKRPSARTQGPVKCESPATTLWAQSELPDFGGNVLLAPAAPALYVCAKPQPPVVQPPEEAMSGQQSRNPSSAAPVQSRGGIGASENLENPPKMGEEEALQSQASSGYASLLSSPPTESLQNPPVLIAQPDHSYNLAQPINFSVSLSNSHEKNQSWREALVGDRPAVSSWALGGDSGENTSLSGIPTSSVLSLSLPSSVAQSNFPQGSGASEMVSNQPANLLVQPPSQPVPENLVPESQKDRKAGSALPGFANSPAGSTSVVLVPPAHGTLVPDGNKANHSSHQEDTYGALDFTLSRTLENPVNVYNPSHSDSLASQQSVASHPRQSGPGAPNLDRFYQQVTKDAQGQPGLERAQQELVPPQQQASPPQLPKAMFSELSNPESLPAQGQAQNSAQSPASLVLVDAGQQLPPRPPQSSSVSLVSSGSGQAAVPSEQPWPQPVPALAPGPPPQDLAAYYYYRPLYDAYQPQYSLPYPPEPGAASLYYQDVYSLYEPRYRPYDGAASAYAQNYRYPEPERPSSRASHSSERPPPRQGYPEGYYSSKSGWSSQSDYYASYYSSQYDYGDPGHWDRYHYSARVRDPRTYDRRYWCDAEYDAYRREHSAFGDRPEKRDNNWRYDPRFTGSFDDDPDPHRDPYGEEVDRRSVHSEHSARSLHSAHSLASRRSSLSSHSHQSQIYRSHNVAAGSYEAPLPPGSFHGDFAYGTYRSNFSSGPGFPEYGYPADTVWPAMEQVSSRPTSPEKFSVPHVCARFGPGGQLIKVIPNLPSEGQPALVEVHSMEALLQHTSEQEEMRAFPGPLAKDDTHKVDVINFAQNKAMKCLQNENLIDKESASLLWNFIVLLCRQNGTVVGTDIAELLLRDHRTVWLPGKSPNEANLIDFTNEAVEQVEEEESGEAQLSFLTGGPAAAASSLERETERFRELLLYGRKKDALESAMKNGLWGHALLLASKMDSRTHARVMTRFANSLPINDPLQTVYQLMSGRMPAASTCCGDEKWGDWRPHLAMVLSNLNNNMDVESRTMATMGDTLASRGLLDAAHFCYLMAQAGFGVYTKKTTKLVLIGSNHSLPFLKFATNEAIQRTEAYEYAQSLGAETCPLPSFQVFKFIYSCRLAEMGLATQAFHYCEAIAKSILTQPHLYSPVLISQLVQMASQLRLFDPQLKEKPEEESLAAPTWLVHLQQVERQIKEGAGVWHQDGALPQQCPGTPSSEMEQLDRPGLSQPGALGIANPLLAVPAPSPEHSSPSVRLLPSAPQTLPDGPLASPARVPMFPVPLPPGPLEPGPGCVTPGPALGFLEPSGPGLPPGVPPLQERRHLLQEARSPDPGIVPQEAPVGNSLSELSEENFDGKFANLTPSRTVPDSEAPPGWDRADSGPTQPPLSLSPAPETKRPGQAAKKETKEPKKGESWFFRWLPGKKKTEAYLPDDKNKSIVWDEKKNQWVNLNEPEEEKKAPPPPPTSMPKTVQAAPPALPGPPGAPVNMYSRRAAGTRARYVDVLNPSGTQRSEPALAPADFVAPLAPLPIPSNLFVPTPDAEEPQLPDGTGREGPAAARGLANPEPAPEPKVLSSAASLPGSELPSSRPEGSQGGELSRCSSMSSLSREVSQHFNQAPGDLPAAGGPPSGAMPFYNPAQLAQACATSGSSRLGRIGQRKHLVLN
effect of a mutation on the interaction (sc16a_human SEC16A),effect of a mutation on the interaction (sc16a_mouse Sec16a),Substance
disrupting interaction strength,disrupting interaction strength,"Leucine-rich repeat serine/threonine-protein kinase 2 (Homo sapiens), Q5S007 K1347A"
decreasing interaction strength,disrupting interaction strength,"Leucine-rich repeat serine/threonine-protein kinase 2 (Homo sapiens), Q5S007 R1441C"
